PMC4441422

How the values were obtained:
[1] = molecular target: T1, truncation mutant of hNMT1s devoid of 28 N-terminal amino acids (Δ28-hNMT1s) (human) (UniProt P30419)
T1 sequence: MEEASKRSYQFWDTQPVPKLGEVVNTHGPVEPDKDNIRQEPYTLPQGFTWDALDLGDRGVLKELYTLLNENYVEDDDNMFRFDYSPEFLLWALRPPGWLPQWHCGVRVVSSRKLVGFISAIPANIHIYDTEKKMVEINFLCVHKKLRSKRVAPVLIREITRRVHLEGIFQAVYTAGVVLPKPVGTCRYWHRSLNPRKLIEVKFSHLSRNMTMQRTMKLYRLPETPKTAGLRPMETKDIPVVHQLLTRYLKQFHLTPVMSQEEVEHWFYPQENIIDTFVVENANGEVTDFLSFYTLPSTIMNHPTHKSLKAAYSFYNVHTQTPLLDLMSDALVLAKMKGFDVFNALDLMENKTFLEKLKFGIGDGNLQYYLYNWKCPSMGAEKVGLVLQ

[2] = molecular target: T2, full-length catalytic domain of human N-myristoyltransferase 1 (hNMT1s) (human) (UniProt P30419)
T2 sequence: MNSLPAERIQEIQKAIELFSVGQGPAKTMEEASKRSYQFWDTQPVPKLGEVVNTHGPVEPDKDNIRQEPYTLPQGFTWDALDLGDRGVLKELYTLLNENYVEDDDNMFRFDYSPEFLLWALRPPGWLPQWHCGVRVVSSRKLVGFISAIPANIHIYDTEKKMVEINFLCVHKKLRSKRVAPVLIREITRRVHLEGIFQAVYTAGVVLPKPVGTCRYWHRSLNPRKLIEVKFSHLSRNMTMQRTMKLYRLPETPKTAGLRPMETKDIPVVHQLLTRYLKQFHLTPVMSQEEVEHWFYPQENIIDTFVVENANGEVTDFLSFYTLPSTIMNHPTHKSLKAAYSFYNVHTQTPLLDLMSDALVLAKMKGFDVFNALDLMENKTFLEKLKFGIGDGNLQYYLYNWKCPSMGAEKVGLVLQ

K m (μM) for the peptide in the myristoylation reaction (fluorescence assay of CoA release with CPM; peptide 1-50 μM, MYA 30 μM, 5 nM enzyme, 25°C) [1]: 14.4 µM | K m (μM) for the peptide in the myristoylation reaction (fluorescence assay of CoA release with CPM; peptide 1-50 μM, MYA 30 μM, 5 nM enzyme, 25°C) [2]: 25.7 µM
B1: peptide substrate corresponding to the N-terminal sequence of pp60src (amino acids 2-9) (peptide)
peptide: GSNKSKPK
